B1: TPR t1 (parent)
chain: GACCAAUCUGCCCUCAGAGCUCGAGAACAUCUUCGGAUGCAGAGGAGGCAGGCUUCGGUGGCGCGAUAGCGCCAACGUCCUCAACCUCCAAUGCAUCCCACCACAUGAUGAUGCCUGAAGAGCCUUGGUUUUUUG

Variants of: B1
Test: polymerase ribozyme fitness, log enrichment relative to wild type (log ratio); higher = more active; in vitro selection for triplet polymerase activity
Outline: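 Only genotypes with ≥10 input reads and ≥1 read per output were kept after Illumina sequencing of input and output libraries. These libraries were PCR-built, transcribed mutants of each subunit of a heterodimeric triplet polymerase ribozyme, each put through one triplicate in vitro selection round with frozen incubation at −7 °C, gel excision of extended constructs, streptavidin-bead capture and RT-PCR. Fitness is a logarithmic ratio of genotype enrichment to wild-type enrichment, from inverse-variance-weighted replicate averages, with the logarithm in base 2.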

Variant	polymerase ribozyme fitness (log ratio)
A16G C53G U87G U96A U112A	-1.33
A18G G19A U96C C115A	-4.42
A16G G47C C56U A74U A121G G128C	-3.74
G17A G61A C114G C124A	-3.95
G17A G60U C97U	-4.13
G17C U54G G61A C94A U112G	-6.29
A18C A43G C114U U129C	-3.16
C15U U96A A119G	0.622
C15U G47U C49A C86A U106C	-2.3
A18G C62U A74C	-5.71
A16C G52A	-1.81
A16C C49U G60U U78A	-3.42
C15U G60C A91U U129A	-4.69
A18C G63U	-4.53
A18C C89G U116C C124A	-0.0811
C15U C73U A83G	-2.56
C15U G122A	-1.11
A16U C56A	-1.97
G17C C72U U78G U116A A119C G120A	-5.61
G17U U59C A108G A118U	-5.03
A16U A41G G63U C115U	-4.47
A18C U32C	-2.05
C15U G60U	-1.08
C15U U132A	-0.984

Variant	polymerase ribozyme fitness (log ratio)
C15U G17A G19A U38G G69C A75U U92G U109C C124U U134G	-5.8
A18C C53U A121U	-0.907
G17U A41C G61A C89A	-4.06
G17U G19U G69U A84U G93A	-4.27
A16U A37C G71U A111U	-5.61
A16U C56U U87A A103U U112A	-4.76
G17U U21G G47C C115A	-1.81
A18G C28A U112A	-4.92
C15U C72G	-1.64
G17U G42U G45A G69C U81G C86A C94U C99A A121C	-6.32
G17U C20U C49A C73G C115A	-1.32
A16C G120A	-2.28
C15U C88A A91C	-2.47
A16U U32A A46U A103C A111G	-5.71
A16G G60U G107U C124G	-4.06
A16U A29U U54A G63U	-3.53
A16U C102A	-3.35
G17A G60U C79A	-5.25
A18G G19A	-1.4
C15U C62A C86U A111C U129G	-4.97
A18G A74C C97A U106A	-6.31
G17U C70G	-4.78
G17A C80U	-3.53
G17A C80A	-5.66

Variant	polymerase ribozyme fitness (log ratio)
G17U C49U C124G G127C	-0.942
C15U G44U C85A C94U G117C A118U	-4.78
C15U C101A	-2.35
C15U C101U	-1.84
A16U C82A	-2.02
C15U G120U	-0.697
C15U G120A	-1.08
G17U G69U A111G U133G	0.0717
G17A U116C G120U	-5.7
C15U G42U G120U G127C	-2.69
A18C U92G	-2.86
A16U U116C	-0.734
G17A C49G A50G U106A	-3.86
A16G C49A A68G C73U	-4.78
C15U G42A G48A C79U A105C U112A G113U C124A	-4.71
G17A G42U G57A G120C	-3.79
A18C C53U C70U	-4.83
A16G G47A	-2.15
G17A C53A C104U U133A	-2.46
A18C A43U	0.3
C15U C98U	-2.28
G17U G60C A121G	-0.0519
G17A A95U	-3.81
G17C U133G G135U	-3.94

Variant	polymerase ribozyme fitness (log ratio)
A18C G48A C94G	-3.96
A18C G48A A119G G120A U126A	-3.21
A16U G69U A121C	1.22
A18C C56U U132A	-2.9
G17C U78A A111U	-6.19
A16U G47U G60U U112G	-1.75
G17A C20A G61C A119U C124A	-5.19
A18C C72U G113C	-3.97
G17A C70U	-3.03
G17U C49U G93A	-4.22
A16U G17A G117A	-2.04
A16U A37U G69U U106C G120U	-0.0765
A16U C79U G110A	-2.61
G17U C62G A83U C123G	-5.79
G17A G69A C102U C114G U131G	-6.68
A18C G71C	-4.19
A18U A26C C62U G120C U126G	-7.02
A18C C114U	-3.82
A16C C53U	-2.99
A16U C73U G93C U96A	-4.76
G17C U129A	-5.13
A18C G69A	-6.17
A18C G69U	-0.162
C15U C73U A74C	-1.46

Variant	polymerase ribozyme fitness (log ratio)
G17C A43C A83U	-6.26
A18G G36A G61A U116C A118G	-3.23
C15U G44C G93A	-2.63
C15U G36A A121C	0.213
A16U G17A G93A	-4.25
G17U A46U C53G G63C A83C C85G C89U A121C C123U U126A	-6.58
A16U G69U G71U G117C	-4.04
A16C G45C U59A C72A U112C G135U	-4.45
A16U C62G C123A	-3
A16G C73A A90C	-3.02
A16C U87A	-2.49
A16G G61C	-2.19
A16U C56A G69U G117U	-2.35
A18G C34A	-5.57
G17A C53A A90G A95U	-3.77
G17A U116C	-3.7
A18C C40U G48A C56G A84C C114U	-5.13
A16G C49A C88A C99A C102U C114U	-4.49
A18C G117C	-4.33
G17A G61U C85A C97U	-4.18
A16U C34A C64A U109G C123A U129G	-6.08
G17A U55G C123A	-2.36
A18G G19U A46C C56A U87A	-2.82
A16C C64G G69U C94G G110U	-4.25

Variant	polymerase ribozyme fitness (log ratio)
C15U C34A G69C	-5.57
A18G G23A C53U U59C C79A G117C U133C	-5.37
G17A A90C C101A C114G	-5.04
C15U G47A G113C A121C	-4.25
C15U G39U G52A	-3.14
A16U A18U	-3.06
A16U C20A C64U U87C U130C	-4.77
A16U C34A U109G C123A U129G	-5.83
G17U G63C	-3.04
G17U C123A	-1.2
C15U G58C G120C	0.694
C15U C56G G61U A66G C73U C94G C97G C98A U112G A119C G135C	-5.66
C15U C62A C79A	-4.11
A16U G42U C53G G71A G120A	-2.89
C15U G52U G61A C98U U125A U131A	-3.15
G17U C40A G48U C70U C99A G113A G117C	-6.87
A18C G58C	-2.1
A16C G42U G57C A118U	-2.43
A16U	-1.46
A16C	-2.19
A16G	-0.761
C15U G57U C102A U116G C123G	-4.08
A18G G19C C53U A111U	-4.72
G17U G48A A50U G61C G93A U106A	-5.21

Variant	polymerase ribozyme fitness (log ratio)
G17U G71U	-2.1
A18C U112C	-0.328
A18U A29G C56A C80A	-6.14
A16U C123U	0.19
A16U C123A	-1.57
A16C C98U G110A C124A	-4.72
G17A C86G	-4.48
A18C A29U C88U C89U C97U	-4.49
A16C G42A	-3.47
A16C C56G G77U C115G	-3.78
G17C C72U C88A	-4.4
A16U A24G C115G	-6.98
A16C C72A	-3.3
G17A G48U G69C C88G	-5.4
A16U G113A	-3.61
A18G C101G G117C	-4.66
A18G U78C	-2.98
G17A G63U A90C U112A	-5.03
A18C U78A U112G G122U	-4.43
G17A G39U G113C	-6.88
G17U C97U	-3.45
A16U A18U U133A	-4.63
G17A C20U G57C G61A	-4.32
